The supplement of paper PMC11908140

B1: library; numbered along this chain (parent)
chain: MRKPRAAVGSGHRKQAASQEGRQKHAKNNSQAKPSACDGLARQPEEVVLQASVSSYHLFRDVAEVTAFRGSLLSWYDQEKRDLPWRRRAEDEMDLDRRAYAVWVSEVMLQQTQVATVINYYTGWMQKWPTLQDLASASLEEVNQLWAGLGYYSRGRRLQEGARKVVEELGGHMPRTAETLQQLLPGVGRYTAGAIASIAFGQATGVVDGNVARVLCRVRAIGADPSSTLVSQQLWGLAQQLVDPARPGDFNQAAMELGATVCTPQRPLCSQCPVESLCRARQRVEQEQLLASGSLSGSPDVEECAPNTGQCHLCLPPSEPWDQTLGVVNFPRKASRKPPREESSATCVLEQPGALGAQILLVQRPNSGLLAGLWEFPSVTWEPSEQLQRKALLQELQRWAGPLPATHLRHLGEVVHTFSHIKLTYQVYGLALEGQTPVTTVPPGARWLTQEEFHTAAVSTAMKKVFRVYQGQQPGTCMGSKRSQVSSPCSRKKPRMGQQVLDNFFRSHISTDAHSLNSAAQ

Variants of: B1
Assay: 8OG:A repair function score (normalized; synonymous = 0, nonsense = -1) (normalized log-likelihood score); higher = more repair activity (WT-like)
Details: with 8OG:A DNA repair reporter (GFP) in HEK-293 MUTYH KO cells
Method in brief: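 Lentiviral MUTYH cDNA NNN codon-scan libraries were expressed in MUTYH knockout HEK-293 cells with 10 pg/ml doxycycline, and the cells received an 8OG:A GFP repair reporter together with mCherry. At 72 h, viable mCherry+ cells went into GFP+ (repair) or GFP− bins, three replicates per tile, before tile amplicons were sequenced. A repair function score was then built from per-tile Rosace fitness scores, anchored on the synonymous and nonsense distributions. Synonymous medians sat at 0 and nonsense at -1, and variants under 300 counts per million at the start were left out.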
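Also: cells sorted at 72 h after reporter transfection.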

Variant	8OG:A repair function score
E167P	-0.768
V348A	-0.589
V348S	-1.25
T228C	-0.0551
Q394V	-0.209
Q394M	-0.148
Q394P	-0.467
H410R	0.0868
L241V	-0.358
R495A	-0.0255
R495W	0.0272
S74N	-0.0112
G471W	-0.0505
T176V	-0.285
T176S	-0.0317
T380W	-0.271
W146Q	-0.345
A220R	-0.747
A220N	-0.671
G497N	0.0269
S518E	0.0194
L290F	-0.0363
L149G	-0.743
R482C	0.0254

Variant	8OG:A repair function score
R482K	0.021
P299T	-0.0424
G186H	-0.754
A254C	-0.0862
A254W	-0.393
E90L	0.0056
E395V	-0.0171
H172I	-0.0329
H172M	0.0264
Q144M	0.0906
Q144C	-0.0295
S105I	-0.549
S296L	-0.0062
L40Y	0.179
P377D	-1.06
V427K	-1.06
P317S	0.0611
P317K	-0.197
Y120A	-0.24
P225S	-0.0602
I198L	-0.391
I198D	-1.1
S459D	-0.823
A345L	-0.04

Variant	8OG:A repair function score
C272K	-1.41
S483N	0.0224
S483K	-0.04
T476Q	-0.0039
L313M	0.00327
Q363A	-0.167
E302V	-0.232
G248N	-0.871
G155K	-0.654
G155W	-0.265
R163Y	-0.137
R163V	-0.0917
K3P	0.0268
A177Q	-0.125
A177R	-0.127
A177E	-0.368
A520V	-0.0172
A520T	-0.000144
A41L	-0.0575
A41C	-0.0569
V142C	-0.143
V142Q	-0.397
Q498T	0.0263
L396V	-0.026

Variant	8OG:A repair function score
A245Q	0.0913
F330N	-1.18
D77Y	-0.0402
Y152T	-0.854
V65T	-0.00404
R2N	0.108
V218N	-0.444
D249M	-0.419
D249N	-0.673
D249I	-0.596
D249L	-0.649
E160D	-0.104
A519E	0.0285
N329Y	-0.104
S490V	-0.0138
S490D	-0.0147
V458Q	-0.711
V458Y	-0.724
T179P	-0.236
Y76M	-1.2
Y76P	-1.8
Y76D	-1.25
Y151V	-0.583
E46N	-0.0764

Variant	8OG:A repair function score
E46Y	-0.0657
E46A	0.0651
K492Q	0.0192
K492E	0.022
K492Y	-0.0316
A196V	-0.382
G222T	-0.547
R189S	-0.0964
V165D	-0.91
C314I	-0.652
C314E	-0.317
C314F	-0.764
G475Y	-0.00721
G434Y	0.0378
R340Y	-0.205
M173H	-0.672
M173Y	-0.366
M173P	-0.654
H454N	0.24
H454K	-0.0092
T417S	0.0785
T417C	-0.188
L257S	-0.983
N119G	0.0963

Variant	8OG:A repair function score
N119S	-0.294
N119L	-0.112
N251L	-0.938
T116A	-0.122
T116H	0.0217
T116I	-0.262
T116G	-0.179
L237G	-0.848
H57L	-0.734
G444K	-0.0942
T449L	-0.0459
S226P	-0.642
V107Q	-0.746
S153N	-0.152
L234I	-0.183
G148M	-1.1
G148A	-0.564
L131K	-0.394
F200V	-0.545
T112V	-0.914
T112A	-1.03
T112R	-0.922
M496P	-3.86e-05
Q426E	-0.28

Variant	8OG:A repair function score
A259D	-1
A305H	-0.0126
S367L	-0.139
Q499R	-0.0243
E168F	-0.102
R281A	-0.0465
R281H	0.00153
A280N	-0.632
A199S	-0.171
P443F	0.179
P402F	-0.215
P402V	-0.0663
W85V	-1.12
L183Y	0.0742
S510E	-0.0364
S510W	-0.046
S510Y	-0.0344
D94C	-0.112
P404I	0.118
K464V	-0.276
F418M	0.07
P442F	-0.0534
Q181W	-0.337
C269A	-1.29

Variant	8OG:A repair function score
C269D	-0.992
S480M	0.0231
C304S	-0.289
C304Y	-0.341
L392K	-1.03
Q282T	-0.0623
N143A	-0.35
N143E	-0.196
N143T	-0.286
D300S	-0.139
Q435F	-0.052
Q239L	-0.403
A400H	0.179
Q159N	-0.144
R213N	-0.963
Y469D	-0.955
Q78F	-0.0455
I195N	-1.12
E92R	-0.0994
Q271C	-0.0175
E141H	0.19
W103Q	-0.686
S54D	-0.029
V438P	0.0371

Variant	8OG:A repair function score
V438C	0.134
L325T	-0.113
L325G	-0.16
E140T	-0.149
E140M	-0.00715
L95E	-0.00548
L95K	-0.0064
L95C	-0.0111
A212Y	-0.62
Q43F	0.0374
Q43V	-0.0464
Q113V	-0.43
Q113H	-0.405
Q113K	-0.158
A115H	0.0405
D91H	0.0064
V47R	-0.00231
V47G	-0.0668
D224H	-0.924
V465M	-0.396
V379R	-0.476
G209F	-0.839
G201R	-0.0601
R246E	-0.696

Variant	8OG:A repair function score
R246H	-0.449
A405F	0.0223
A67R	0.00599
A67E	-0.0141
A147F	-0.305
L393E	-0.395
L393W	-0.266
G356A	-0.11
L169D	-0.386
P267W	-1.06
V327D	-0.777
A135I	-0.611
A357I	-0.0394
I359G	-0.91
H514K	0.0132
R389G	-0.385
C278H	-1.09
L430E	-0.36
R156M	-0.207
D208K	-0.994
P264H	-0.113
Q202T	-0.198
A101P	-0.398
V500E	0.0219

Variant	8OG:A repair function score
S486M	-0.00979
W381Q	0.126
W381N	0.268
P331I	-0.596
P331Q	-0.608
P331V	-0.568
P331K	-0.332
G309K	-0.0254
V274C	-0.176
V274L	-0.0284
Q310H	-0.0309
S138K	-0.105
L277F	0.00162
W235D	-0.452
C489L	0.0177
C489R	-0.0027
F504G	-0.0353
F504P	-0.0247
V207K	-0.909
V207A	-0.78
V207I	-0.363
N307E	-0.0119
N307W	-0.0672
Y428V	-1.03

Variant	8OG:A repair function score
R283L	-0.0781
R283N	-0.173
S507I	-0.0448
N210T	-1.03
N210K	-1.04
Q232K	-0.0471
S318L	-0.0905
L49A	0.0219
Q286N	0.0116
Q286G	-0.0661
Q286I	-0.0426
R87S	0.00689
P185D	-0.333
P185Q	-0.197
Q288R	-0.00978
H416M	-0.755
A238K	-0.887
G70R	0.00416
R69F	-1.53
D243C	-0.276
V441R	-0.293
V485C	0.0143
F68M	-0.0967
C311L	-0.479

Variant	8OG:A repair function score
T204D	-0.103
T204Q	-0.045
L501R	0.00197
L501C	-0.00326
L501N	-0.0105
S515E	0.0198
V53C	0.000965
P273F	-0.844
K127W	-0.529
K127N	-0.0772
E303Q	0.0405
Q182D	-0.0172
Q182G	-0.00226
V301P	-0.31
E375G	-0.0637
E375V	-0.423
L268P	-0.285
R175F	-0.197
R175H	-0.116
Y121D	-0.798
P84Q	-0.242
P84H	-0.482
A194W	-1.05
A194N	-0.737

Variant	8OG:A repair function score
T191I	-0.0338
N503D	-0.0599
V414G	-0.649
V468P	-0.969
V468N	-0.262
F250W	-0.258
F250R	-1.01
L370Q	-0.398
Q50L	-0.0733
Q50C	0.0151
V62H	-0.0066
V117A	0.0474
Q252I	-0.942
G372N	-0.294
G372C	-0.263
K481L	-0.0084
L448Q	-0.202
A461E	-0.842
A461S	-0.119
E64G	-0.0592
T511Y	0.0102
A223Q	-0.0573
